Laboratory results reported in patent US20060252716A1, “Method for reversing the immunosuppressive effects of the melanoma inhibitory activity "mia"” (priority 2000, published 2006).

What was measured:
MIA = test: Inhibition of MIA expression by antisense sequences; format: cell-based, human
[1] = system: Peripheral Blood Mononuclear Cells (PBMCs); conditions: addition of MIA; cited from earlier work
cells = conditions: cited from earlier work
[2] = system: LAK cytotoxicity against malignant glioma cell lines (HTZ-17, -243, -374, -375); test: CARE-LASS calcein-release assay, effector cells pretreated with MIA; format: cell-based
Description: To study the effects of MIA upon cytotoxic T-lymphocytes (CTL) and Lymphokine Activated Killer cells (LAK cells) a CARE-LASS assay has been employed (Lichtenfels, R., Biddison, W. E., Schulz, H., Vogt, A. B. and R. Martin. CARE-LASS (calcein-release assay), an improved fluorescence based test system to measure cytotoxic lymphocyte activity J. Immunol. Meth., 172: 227-239, 1994). Briefly, glioma cells were harvested, washed in 5% FCS/PBS solution and resuspended at 10 Mio cells/ml in 5% FCS/FBS. Calcein-AM was added to a final concentration of 25 μM (Molecular Probes, USA). The cells were labeled for 30 min at 37° C. then washed twice in 5%/FCS/PBS, adjusted to 1 Mio cells/ml and loaded into 96-well U-shaped microtiter plates at the final concentration of 0.1 Mio/100 μL/1 well (Nunc, Denmark). To measure cytotoxic activity of effector cells pretreated with MIA (f.c. 500 ng/ml), wells were loaded with 100 μL of CTL and LAK cells to produce the desired E:T ratios of […]. […] After incubating the plate for 4 h at 37° C. the supernatants (50 μL) were transferred into new wells and measured using an automated fluorescence scanner (Titertek Fluoroskan II, Germany). The percent cytotoxicity was determined from the following equation: [formula]

malignant melanoma cell = conditions: cited from earlier work
[3] = system: human MIA-secreting melanoma as well as breast cancer cell lines; test: Tumor invasion and metastasis in scid-mice and nude mice; format: in vivo; conditions: transfecting vector expressing the antisense sequence
Description: Inhibition of endogenous MIA synthesis by a transfecting vector expressing the antisense sequence (SEQ. ID No 9): […]

## MIA-0202-N: MIA antisense sequence ATG GTG AGG AAT CG
MIA
  inhibiting MIA expression: Less active or inactive

## MIA-1277-N: MIA antisense sequence GAA TGG TCA GGA ATG G
MIA
  inhibiting MIA expression: Less active or inactive

## MIA-1278-W: MIA antisense sequence CTT GGA GAA GAG ATA C
MIA
  inhibiting MIA expression: Active

## MIA-2841-W: MIA antisense sequence GTC AGG AAT CGG GAG
MIA
  inhibiting MIA expression: Active

## MIA-2842-W: MIA antisense sequence TGC CTC CCC AGA AG (antisense TGCCTCCCCAGAAG; all phosphorothioate, sugars by position and methylation of C not given here; listed as Homo sapiens)
MIA
  inhibiting MIA expression: Active

B1: MIA: polypeptide Melanoma Inhibitory Activity; 131-amino acid precursor processed into a mature 107-amino acid protein (protein, UniProt Q16674 25-131, looked up)
Melanoma-derived growth …: GPMPKLADRKLCADQECSHPISMAVALQDYMAPDCRFLTIHRGQVVYVFSKLKGRGRLFWGGSVQGDYYGDLAARLGYFPSSIVREDQTLKPGKVDVKTDKWDFYCQ
[1]
  IL-2-stimulated PBMC proliferation: only slightly inhibited
cells
  inhibits cell proliferation (cell cycle effect): prolonging of the S-Phase and arrest of the cells in the G2 compartment
[2]; MIA f.c. 500 ng/ml, E:T ratios 1:10 and 1:100, 4 h
  inhibition of autologous and allogenic LAK cytotoxicity compared to controls: up to 40%
[2]; exogenous addition of MIA
  Allogenic anti-glioma LAK immune response: strongly inhibited
Malignant melanoma cell
  tumor cell growth inhibition: potent tumor cell growth inhibitor

B2: SEQ. ID No 9: long MIA antisense sequence, or parts of it, expressed from a transfecting vector (nucleic acid, listed as Homo sapiens)
antisense: GGCAGGGCCAGCGGTAGGCTGAGCTCACTGGCAGTAGAAATCCCATTTGTCTGTCTTCACATCGACTTTGCCAGGTTTCAGGGTCTGGTCCTCTCGGACAATGCTACTGGGGAAATAGCCCAGGCGAGCAGCCAGATCTCCATAGTAATCTCCCTGAACGCTGCCTCCCCAGAAGAGCCGCCCACGGCCCTTCAGCTTGGAGAAGACATACACCACTTGGCCCCGGTGAATGGTCAGGAATCGGCAGTCGGGGGCCATGTAGTCCTGAAGGGCCACAGCCATGGAGATAGGGTGGCTGCACTCCTGGTCCGCACACAGCTTCCGGTCAGCCAGCTTGGGCATAGGACCACCCCTGACACCAGGTCCGGAGAAGGCAGACAGCAAGATGATGACACCAAGGCACACCAGGGACCGGGCCATCGTGGACTGTGAGCAAGAGAGTGAGCAAGGGGGTGCTGG
modifications: expressed from transfecting vector
[3]
  tumor invasion and metastasis: strongly reduced
